# Target: Photorhabdus luminescens TcdA1 (TcA subunit of the Tc toxin) (P. luminescens) (UniProt Q9RN43)
# Test: cryo-EM structure
substance,measurement,value
"Photorhabdus luminescens TcdA1 (TcA subunit of the Tc toxin), Q9RN43 1-2516",stoichiometry N,5
